# Reference: patent EP4775675A1 (Shanghai Hongcheng Biopharmaceutical Co., Ltd., dated 2026)
# T1: cynomolgus monkey BDCA-2 on cells (Jurkat-cynoBDCA-2 cells; cynomolgus monkey pDCs) (cynomolgus monkey, UniProt A0A2K5UWP4 1-212)
# T1 construct: whole, on cells
# T1 sequence: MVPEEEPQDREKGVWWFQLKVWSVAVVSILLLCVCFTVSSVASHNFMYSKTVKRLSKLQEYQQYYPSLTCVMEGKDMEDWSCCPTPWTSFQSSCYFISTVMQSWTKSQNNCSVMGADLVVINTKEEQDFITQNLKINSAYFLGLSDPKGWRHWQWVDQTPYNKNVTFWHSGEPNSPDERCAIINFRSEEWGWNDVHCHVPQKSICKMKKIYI
# T2: human BDCA-2 on cells (Jurkat-hBDCA-2 cells; human pDCs; human PBMCs) (human, UniProt Q8WTT0 1-213)
# T2 construct: whole, on cells; also called CD303; CLEC4C
# T2 sequence (looked up): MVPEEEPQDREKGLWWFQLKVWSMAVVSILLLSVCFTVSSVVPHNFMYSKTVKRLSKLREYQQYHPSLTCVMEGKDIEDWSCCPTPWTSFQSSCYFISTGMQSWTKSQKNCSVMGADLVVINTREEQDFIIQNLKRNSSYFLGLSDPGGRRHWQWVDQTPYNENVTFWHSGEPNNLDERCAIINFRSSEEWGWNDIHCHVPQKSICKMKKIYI
# T3: Human BDCA-2 protein (soluble, Octet analyte) (human, UniProt Q8WTT0 45-213, limits assumed)
# T3 construct: Soluble protein used as analyte in BLI
# T3 sequence (looked up): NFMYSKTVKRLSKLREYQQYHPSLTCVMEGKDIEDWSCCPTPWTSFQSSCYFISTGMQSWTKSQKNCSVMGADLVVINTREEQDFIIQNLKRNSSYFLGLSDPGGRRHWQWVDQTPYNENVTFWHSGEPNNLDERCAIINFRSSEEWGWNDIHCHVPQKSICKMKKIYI
# T4: human CLEC6A (human, UniProt Q6EIG7 42-209, limits assumed)
# T4 sequence (looked up): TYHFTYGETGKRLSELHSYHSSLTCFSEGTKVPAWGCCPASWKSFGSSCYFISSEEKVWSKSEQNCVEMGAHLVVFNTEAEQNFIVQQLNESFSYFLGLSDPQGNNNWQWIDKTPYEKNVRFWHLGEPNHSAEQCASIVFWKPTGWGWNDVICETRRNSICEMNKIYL
# T5: human CLEC4E (human, UniProt Q9ULY5 41-219, limits assumed)
# T5 sequence (looked up): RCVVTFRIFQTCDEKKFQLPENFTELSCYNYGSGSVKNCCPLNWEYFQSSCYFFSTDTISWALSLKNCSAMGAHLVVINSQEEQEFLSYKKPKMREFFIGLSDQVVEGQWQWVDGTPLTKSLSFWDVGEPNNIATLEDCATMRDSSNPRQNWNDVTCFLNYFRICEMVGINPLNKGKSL
# T6: human CLEC4D (human, UniProt Q8WXI8 39-215, limits assumed)
# T6 sequence (looked up): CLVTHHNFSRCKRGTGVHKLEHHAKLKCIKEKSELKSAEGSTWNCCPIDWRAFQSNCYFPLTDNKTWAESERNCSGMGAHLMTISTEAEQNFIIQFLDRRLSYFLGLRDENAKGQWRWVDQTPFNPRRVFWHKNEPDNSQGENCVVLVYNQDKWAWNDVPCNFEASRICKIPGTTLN
# T7: human CLEC4A (human, UniProt Q9UMR7 70-237, limits assumed)
# T7 sequence (looked up): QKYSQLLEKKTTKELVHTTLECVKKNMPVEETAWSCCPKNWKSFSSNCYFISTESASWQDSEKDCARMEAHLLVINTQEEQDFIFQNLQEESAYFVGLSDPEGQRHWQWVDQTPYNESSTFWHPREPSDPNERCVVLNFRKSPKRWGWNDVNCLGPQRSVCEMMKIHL
# Tests used:
# [1] = biological target: T1, cynomolgus monkey BDCA-2 on cells …; experiment: flow cytometry on Jurkat-cynoBDCA-2 cells
# [2] = biological target: T2, human BDCA-2 on cells (Jurkat-hBDCA-2 …); experiment: flow cytometry on Jurkat-hBDCA-2 cells
# [3] = biological target: T3, Human BDCA-2 protein (soluble, Octet …); experiment: BLI (Octet Red96e), antibody on anti-human IgG sensor, human BDCA-2 protein in solution
# human CLEC6A = biological target: T4, human CLEC6A; experiment: ELISA, coated protein 1 µg/ml
# human CLEC4E = biological target: T5, human CLEC4E; experiment: ELISA, coated protein 1 µg/ml
# human CLEC4D = biological target: T6, human CLEC4D; experiment: ELISA, coated protein 1 µg/ml
# human CLEC4A = biological target: T7, human CLEC4A; experiment: ELISA, coated protein 1 µg/ml
# [4] = biological target: T2, human BDCA-2 on cells (Jurkat-hBDCA-2 …); experiment: cell-based or functional assay
Binder,EC50 [1],EC50 [2],Kd [3],koff [3],kon [3],binding result (human CLEC6A),binding result (human CLEC4E),binding result (human CLEC4D),binding result (human CLEC4A),"EC50, inhibition of CpGA-induced type I interferon (IFNα) production in human PBMC cells [4]"
"164C11B8_hzH1L1_hIgG1 (antibody, V domains shown) VH: EVQLLESGGGLVQPGGSLRLSCAASGFTFSTYTMSWVRQAPGKGLEWVSTINSGGDNTYYPDSVKGRFTISRDNSKNTLYLQMNSLRAEDTAVYYCATYRPYYYGSVLDYWGQGTTVTVSS VL: DIVMTQSPDSLAVSLGERATINCKASQSVDYDGNSYVNWYQQKPGQPPKLLIYGASNLESGVPDRFSGSGSGTDFTLTISSLQAEDVAVYYCQQSDEDPWTFGGGTKVEIKR",0.158 µg/mL,0.0429 µg/mL,–,–,–,–,–,–,–,–
"164C11B8_hzH3L1_hIgG1 (antibody, V domains shown) VH: EVQLLESGGGLVQPGGSLRLSCAASGITFSTYTMSWVRQAPGKGLEWVATINSGGDNTYYPDSVKGRFTISRDNSKNTLYLQMNSLRAEDTAVYYCATYRPYYYGSVLDYWGQGTTVTVSS VL: DIVMTQSPDSLAVSLGERATINCKASQSVDYDGNSYVNWYQQKPGQPPKLLIYGASNLESGVPDRFSGSGSGTDFTLTISSLQAEDVAVYYCQQSDEDPWTFGGGTKVEIKR",–,0.0675 µg/mL,–,–,–,–,–,–,–,–
"164C11B8_hzH4L1_hIgG1 (antibody, V domains shown) VH: EVQLLESGGGLVQPGGSLRLSCAASGITFSTYTMSWVRQAPGKRLEWVATINSGGDNTYYPDSVKGRFTISRDNSKNTLYLQMNSLRAEDTAVYYCATYRPYYYGSVLDYWGQGTTVTVSS VL: DIVMTQSPDSLAVSLGERATINCKASQSVDYDGNSYVNWYQQKPGQPPKLLIYGASNLESGVPDRFSGSGSGTDFTLTISSLQAEDVAVYYCQQSDEDPWTFGGGTKVEIKR",0.31 µg/mL,0.191 µg/mL,–,–,–,–,–,–,–,–
"164C11B8_hzH2L1_hIgG1 (antibody, V domains shown) VH: EVQLLESGGGLVQPGGSLRLSCAASGFTFSTYTMSWVRQAPGKGLEWVATINSGGDNTYYPDSVKGRFTISRDNSKNTLYLQMNSLRAEDTAVYYCATYRPYYYGSVLDYWGQGTTVTVSS VL: DIVMTQSPDSLAVSLGERATINCKASQSVDYDGNSYVNWYQQKPGQPPKLLIYGASNLESGVPDRFSGSGSGTDFTLTISSLQAEDVAVYYCQQSDEDPWTFGGGTKVEIKR",0.252 µg/mL,0.104 µg/mL,–,–,–,–,–,–,–,–
"17G6A2_hzH2L5_hIgG1 (antibody, V domains shown, Humanized, human IgG1/kappa (hzVH02 + hzVL05)) VH: EVQLVESGGGLVKPGGSLRLSCAASGFTFSSYGMSWVRQAPGKGLEWVATISSGDSYTYYPDSVKGRFTISRDNAKNSLYLQMNSLRAEDTAVYYCARQLYYSYGYYFDYWGQGTTVTVSS VL: DIVLTQSPASLAVSPGQRATITCRASESVSFHGTHLMHWYQQKPGQPPKLLIYAASNLESGVPARFSGSGSGTDFTLTINPVEAEDTANYYCQQSIEDPPTFGGGTKVEIKR",0.0943 µg/mL,0.18 µg/mL,3.2 nM,0.000567 s⁻¹,176000 M⁻¹ s⁻¹,no binding (tested: 10 µg/ml),no binding (tested: 10 µg/ml),no binding (tested: 10 µg/ml),no binding (tested: 10 µg/ml),0.0014 µg/mL
"17G6A2_hzH3L7_hIgG1 (antibody, V domains shown, Humanized, human IgG1/kappa (hzVH03 + hzVL07)) VH: EVQLVESGGGLVKPGGSLRLSCAASGFTFSSYGMSWVRQAPGKRLEWVATISSGDSYTYYPDSVKGRFTISRDNAKNSLYLQMNSLRAEDTAVYYCARQLYYSYGYYFDYWGQGTTVTVSS VL: DIVLTQSPASLAVSPGQRATITCRASESVSFHGTHLMHWYQQKPGQPPKLLIYAASNLESGVPARFSGSGSETDFTLTINPVEAEDTANYYCQQSIEDPPTFGGGTKVEIKR",0.0975 µg/mL,0.0583 µg/mL,–,–,–,no binding (tested: 10 µg/ml),no binding (tested: 10 µg/ml),no binding (tested: 10 µg/ml),no binding (tested: 10 µg/ml),0.0011 µg/mL
"17G6A2_hzH3L6_hIgG1 (antibody, V domains shown, Humanized, human IgG1/kappa (hzVH03 + hzVL06)) VH: EVQLVESGGGLVKPGGSLRLSCAASGFTFSSYGMSWVRQAPGKRLEWVATISSGDSYTYYPDSVKGRFTISRDNAKNSLYLQMNSLRAEDTAVYYCARQLYYSYGYYFDYWGQGTTVTVSS VL: DIVLTQSPASLAVSPGQRATITCRASESVSFHGTHLMHWYQQKPGQPPKLLIYAASNLESGVPARFSGSGSGTDFTLTINPVEANDAANYYCQQSIEDPPTFGGGTKVEIKR",0.0663 µg/mL,0.0831 µg/mL,–,–,–,no binding (tested: 10 µg/ml),no binding (tested: 10 µg/ml),no binding (tested: 10 µg/ml),no binding (tested: 10 µg/ml),0.0017 µg/mL
"17G6A2_hzH3L8_hIgG1 (antibody, V domains shown, Humanized, human IgG1/kappa (hzVH03 + hzVL08)) VH: EVQLVESGGGLVKPGGSLRLSCAASGFTFSSYGMSWVRQAPGKRLEWVATISSGDSYTYYPDSVKGRFTISRDNAKNSLYLQMNSLRAEDTAVYYCARQLYYSYGYYFDYWGQGTTVTVSS VL: DIVLTQSPASLAVSPGQRATITCRASESVSFHGTHLMHWYQQKPGQPPKLLIYAASNLESGVPARFSGSGSETDFTLTINPVEANDAANYYCQQSIEDPPTFGGGTKVEIKR",0.0688 µg/mL,0.0456 µg/mL,–,–,–,no binding (tested: 10 µg/ml),no binding (tested: 10 µg/ml),no binding (tested: 10 µg/ml),no binding (tested: 10 µg/ml),0.0011 µg/mL
"17G6A2_hzH3L5_hIgG1 (antibody, V domains shown, Humanized, human IgG1/kappa (hzVH03 + hzVL05)) VH: EVQLVESGGGLVKPGGSLRLSCAASGFTFSSYGMSWVRQAPGKRLEWVATISSGDSYTYYPDSVKGRFTISRDNAKNSLYLQMNSLRAEDTAVYYCARQLYYSYGYYFDYWGQGTTVTVSS VL: DIVLTQSPASLAVSPGQRATITCRASESVSFHGTHLMHWYQQKPGQPPKLLIYAASNLESGVPARFSGSGSGTDFTLTINPVEAEDTANYYCQQSIEDPPTFGGGTKVEIKR",0.101 µg/mL,0.066 µg/mL,–,–,–,no binding (tested: 10 µg/ml),no binding (tested: 10 µg/ml),no binding (tested: 10 µg/ml),no binding (tested: 10 µg/ml),0.0014 µg/mL
"17G6A2_hzH1L8_hIgG1 (antibody, V domains shown, Humanized, human IgG1/kappa (hzVH01 + hzVL08); also called 17G6A2_hzHL8_hIgG1) VH: EVQLVESGGGLVKPGGSLRLSCAASGFTFSSYGMSWVRQAPGKGLEWVSTISSGDSYTYYPDSVKGRFTISRDNAKNSLYLQMNSLRAEDTAVYYCARQLYYSYGYYFDYWGQGTTVTVSS VL: DIVLTQSPASLAVSPGQRATITCRASESVSFHGTHLMHWYQQKPGQPPKLLIYAASNLESGVPARFSGSGSETDFTLTINPVEANDAANYYCQQSIEDPPTFGGGTKVEIKR",0.0781 µg/mL,0.0442 µg/mL,6.3 nM,0.000872 s⁻¹,138000 M⁻¹ s⁻¹,no binding (tested: 10 µg/ml),no binding (tested: 10 µg/ml),no binding (tested: 10 µg/ml),no binding (tested: 10 µg/ml),0.0011 µg/mL
